Read-outs that look alike come from different tables or passages of the source. Peptide text beside a SMILES is read from it. * marks the point of attachment. Cbz = O=C(OCc1ccccc1)*; CHN2 = [N-]=[N+]=C*
How the values were obtained:
[1] = test system: poliovirus (Mahoney strain); format: cell-based, poliovirus type 1; conditions: for effect on poliovirus replication (in words): inhibitor added to cultivation medium; for Virus Yield: poliovirus type 1, multiplicity 1, 48 hrs at 37° C.
poliovirus type 1 = format: cell-based; conditions: 24 μg per disc, green monkey kidney cells infected with poliovirus type 1
HSV type 1 (F strain) = format: cell-based; conditions: for Virus Yield: 48 hrs at 37° C.
[2] = test system: herpes simplex virus type 1 (HSV); format: cell-based
[3] = molecular target: cathepsin B (EC 3.4.22.1); test: Equilibrium constant for dissociation of inhibitor-enzyme complex, cathepsin B; format: binding
Experimental: (§1) Biological activity of 3-des-OH-cystatin C was determined through titration against concentration determined papain. The strength of binding 3-des-OH-cystatin on the cystein proteinases papain (EC 3.4.22.2), cathepsin B (EC 3.4.22.1) and dipeptidyl peptidases I (F.C 3.4.14.1) was determined. The equilibrium constant for dissociation of 3-des-OH-cystatinC enzyme complex (0.005 nM, 0.50 nM and 3.1 nM) was within the experimental error limit identical with the equilibrium constant for human cystatin C enzyme complex (<0.005 nM, 0.27 nM and 6.3 nM For papan, cathepsin B and dipeptidyl peptidases I, respectively).

papain = test: Papain-inhibiting capacity by titration of active papain, substrate Z-Phe-Arg-NHMec; format: biochemical; conditions: papain-inhibiting capacity relative to molar cystatin C concentration; range over several preparations
Experimental: The papain-inhibiting capacity of recombinant 3-des-OH-cystatin C was compared with the corresponding activity of human cystatin C.
The human cystatin C was isolated from urine of patients with mixed glomerular-tubular proteinuria by ultrafiltration, ion-exchange chromatography and gel filtration as described in literature (ref. 2,3) and lyophilized. A total of ten different preparations of human cystatin C and 3-des-OH-cystatin C were tested for their cystein proteinase inhibitory capacity. The cystatin C and 3-des-OH-cystatin C preparations derived from human urine and recombinant technique, respectively, were individually dissolved in 0.15 mol/l ammonium bicarbonate. Cystatin C concentrations of the resulting solutions were determined by phys-ico-chemical and immuno-diffusion and quantitation of amino acids released at hydrolysis in 6 mol/l HCl). The cysteine proteinase inhibiting capacities of these solutions were determined by adding them to a solution of isolated papain (cf. ref. 4), a plant cysteine proteinase widely used as a model for cysteine proteinases in general, and then determining the residual proteolytic activity of the resulting mixtures.
The cysteine proteinase activities of the papain solution and the cystatin C-papain mixtures were determined using the fluorogenic substrate Z-Phe-Arg-NHMec (ref. 5). […]

[4] = molecular target: dipeptidyl peptidases I (F.C 3.4.14.1); test: Equilibrium constant for dissociation of inhibitor-enzyme complex, dipeptidyl peptidase I; format: binding
Experimental: as §1

Q: `CC(C)C[C@H](NC(=O)OCc1ccccc1)C(=O)N[C@H](C(=O)NCC(=O)C=[N+]=[N-])C(C)C` [Z-LVG-CHN2, N-benzyloxycarbonyl-leucyl-valyl-glycine diazomethyl ketone, reference compound] (Cbz-Leu-Val-Gly-CHN2) was tested. Which “effect on poliovirus replication (in words)” value [1] did it give?
A: hardly significant

Q: And the “Virus Yield” value ([1]; 0.4 mM Z-LVG-CHN2 in 1% DMSO)?
A: 4.8 × 10^7 pfu/ml

Q: What about the “inhibition of plaque formation around disc” value (poliovirus type 1) of the same molecule?
A: no inhibition of plaque formation

Q: What about the “inhibition of HSV replication” value (HSV type 1 (F strain)) of the same molecule?
A: > 99.9

Q: And the “Virus Yield” value (HSV type 1 (F strain))?
A: 1.4 × 10^3

Q: What about the “inhibition of plaque formation around disc” value [2] of the same molecule?
A: marked inhibition zones

B1: 3-des-OH-cystatin C: Recombinant 120 amino acid human cystatin C with non-hydroxylated Pro at position 3, expressed in E. coli (protein, UniProt P01034 27-146, looked up)
Cystatin-C: SSPGKPPRLVGGPMDASVEEEGVRRALDFAVGEYNKASNDMYHSRALQVVRARKQIVAGVNYFLDVELGRTTCTKTQPNLDNCPFHDQPHLKRKAFCSFQIYAVPWQGTMTLSKSTCQDA
modifications: non-hydroxylated Pro3
notes: Recombinant 120 amino acid human cystatin C with non-hydroxylated Pro at position 3, expressed in E. coli
Q: Which results are given for B1?
A: Kd [3]: 0.5 nM; effect on poliovirus replication (in words) [1]: no influence on the replication of poliovirus; Virus Yield ([1]; 0.10 mM cystatin C in MEM): 1.1 × 10^8 pfu/ml; molar inhibitory capacity (papain): 83-98%; Kd [4]: 3.1 nM; effect on HSV replication (in words) (HSV type 1 (F strain)): potent inhibitor of HSV replication; Virus Yield (HSV type 1 (F strain)): 2.4 × 10^3

B2: human cystatin C: Native cystatin C isolated from human urine; mixture of 3-OH-Pro form and 3-des-OH form (protein, UniProt P01034 27-146, looked up)
Cystatin-C: B1 Cystatin-C
Q: Which results are given for B2?
A: Kd [3]: 0.27 nM; molar inhibitory capacity (papain): 5-55%; Kd [4]: 6.3 nM
